Source: the supplement of paper PMC10567573

B1: SPOPL (parent)
chain: AKREETKAMESQRAYRFVQGKDWG
B2: MNAT1 (parent)
chain: SLREYNDFLEEVEEIVFNLTNNVD

Variants of: B1
Assay: protein stability index of a GFP-peptide fusion (GPS, HEK-293T) (PSI 1-6); higher = more stable
Conditions: c terminus: a fixed tail appended
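Further: lentivirally expressed fusions sorted by FACS into six bins by GFP to DsRed ratio, PSI derived from sequencing read proportions per bin multiplied by bin number.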

Protein stability index of substitutions, site by site:
Q19: I 2.6 | L 2.15 | D 2.54 | P 3.22 | E 2.6 | Y 2.77 | A 1.15 | F 3.19 | V 2.37 | R 3.93 | K 3.43 | H 3.04 | T 2.73 | N 2.85 | M 2.25 | S 2.44 | W 2.38 | C 2.68
F17: W 4.36 | Y 4.18 | V 3.94
D22: T 3.86 | K 3.77 | R 4.09 | Q 3.18 | N 2.74 | S 3.42 | W 2.55 | L 2.94 | M 2.95 | V 3.82 | H 3.1 | E 3.17 | C 3.13 | I 3.4 | Y 2.76 | A 3.14 | F 2.94 | P 3.18 | G 3.96
G20: F 3.49 | D 4.06 | S 3.35 | Q 4.14 | E 4.31 | R 3.59 | V 3.19 | P 2.83 | L 2.88 | N 3.76 | Y 3.13 | H 3.33 | K 3.64 | A 3.33 | T 3.41 | C 2.97 | M 2.58 | I 2.73 | W 2.72
G24: L 2.64 | A 3.44 | R 3.73 | C 2.18 | Q 4.07 | H 3.39 | F 1.81 | M 2.54 | W 2.27 | K 4.32 | E 3.24 | S 3.49 | D 4.16 | P 2.45 | Y 2.41 | V 2.91 | N 3.63 | I 3 | T 2.96
K21: V 3.1 | W 3.44 | S 2.67 | N 3.11 | H 2.32 | Q 3.02 | C 3.28 | T 3.04 | R 2.51 | F 3.62 | L 2.67 | M 3.43 | E 3.46 | D 3.99 | A 2.96 | G 2.83 | Y 3.08 | I 2.94 | P 2.4
V18: D 4.05 | N 4.14 | A 4.22 | H 2.84 | T 3.96 | Q 3.16 | P 4.07 | F 3.32 | R 3.99 | G 3.67 | K 4.13 | M 3.42 | E 4.15 | L 3.51 | C 3.51 | Y 3.78 | S 4.19 | I 2.66 | W 2.43
W23: Y 4.05 | P 4.79 | S 4.91 | K 4.87 | R 4.49 | A 4.8 | V 4.72 | G 4.88 | F 3.53 | D 4.4 | L 4.21 | M 4.86 | N 3.65 | Q 4.8 | I 4.18 | H 4.77 | T 4.86 | C 4.9 | E 5.14

Variants of: B2
Assay: as above
Conditions: c terminus: a fixed tail appended

Protein stability index, by site and new letter:
E10: L 1.52 | N 1.55 | K 1.91 | F 2.97 | T 2.01 | V 2.25 | C 2.74 | G 2.72 | I 1.3 | P 3.54 | A 1.58 | D 1.95 | Q 2.62 | S 2.41 | R 1.86 | M 1.4 | W 1.95 | Y 2.15
S1: R 2.21 | N 3.35 | W 2.11 | E 2.03 | H 2.24 | C 1.72 | F 2.67 | A 2.1 | D 2.62 | V 2.1 | I 2.23 | P 3.1 | M 1.82 | Q 2.81 | T 1.85 | K 1.94 | L 1.87 | Y 1.69
E11: F 1.49 | N 1.68 | Q 1.72 | D 2.51 | H 2.07 | M 1.87 | R 2.17 | P 3.1 | A 1.86 | C 2.33 | G 2.13 | K 2.07 | I 1.89
N6: I 2.63 | M 1.76 | Q 1.75 | D 2.4 | Y 1.87 | R 2.23 | H 1.8 | P 3.08 | G 3.17 | T 2.27 | V 1.68 | K 3.15 | C 1.78 | A 2.82 | S 3.31 | W 2.38 | F 2.77 | E 1.76
E4: I 1.69 | L 2.5 | M 2.26 | D 2.19 | C 1.95 | F 2.34 | V 2.08 | Y 1.39 | P 2.98 | G 2.39 | A 1.88 | S 2.31 | W 1.8 | R 1.85 | K 2.75 | N 2.04 | T 1.72 | H 2.66 | Q 2.27
L9: Q 4.07 | N 4.6 | A 4.09 | G 3.98 | E 4.32 | H 4.22 | S 4.82 | I 2.26 | M 2.76 | C 3.36 | D 4.5 | P 4.61 | T 4.07 | W 1.79 | K 3.98 | V 3.77 | F 3.05 | R 3.83 | Y 3.59
Y5: S 4.29 | H 3.81 | M 1.73 | R 4.19 | D 2.23 | G 3.91 | E 4.35 | W 2.56 | I 2.61 | P 3.81 | N 4.14 | C 3.11 | V 2.05 | K 4.55 | F 1.58 | Q 4.19 | L 2.16 | A 3.78 | T 4.08
R3: S 2.55 | Q 2.94 | G 2.78 | V 1.61 | Y 1.86 | F 2.6 | T 1.83 | N 2.18 | K 2.06 | M 1.91 | P 3.52 | L 1.64 | D 2.32 | A 2.58 | W 1.62 | H 2.71 | I 1.69 | C 1.77 | E 2.12
F8: H 4.72 | C 3.8 | E 5.2 | G 4.11 | S 4.91 | I 2.57 | Q 4.55 | Y 3.6 | N 4.84 | A 3.06 | D 4.87 | V 3.63 | M 3.51 | P 4.78 | R 4.61 | L 3.43 | K 4.28 | T 4.55 | W 2.53
D7: Q 1.83 | K 1.58 | T 1.47 | P 3 | W 1.96 | C 2.27 | N 2.49 | V 2.16 | S 2.05 | A 2.43 | E 1.91 | R 1.63 | H 1.31 | M 2.27 | L 1.94 | F 2.32 | Y 1.79 | G 1.75
L2: C 2.67 | D 3.33 | E 3.35 | A 2.58 | N 2.86 | M 2.13 | K 2.6 | I 2.31 | F 1.96 | P 3.72 | V 2.33 | Y 2.36 | H 3.09 | G 3.08 | Q 2.72 | R 3.65 | W 1.79 | T 3.01 | S 2.71
